Target: recombinant extracellular domain of EGFR (human) (UniProt P00533)
Assay: MST

Kd: 0.5 µM
Substance: recombinant epiregulin (from UniProt O14944) (ligand)

From paper doi:10.1101/2025.05.02.651972
